Earlier results on 1 substance are cited in publication PMC3310959.

The target of the series is E-cadherin (Mus musculus) (UniProt P09803).

Take E-cadherin (from UniProt P09803): the Kd (commonly the free concentration of one partner at which half of the binding sites on the other are occupied at equilibrium, for simple one-to-one binding) was 97 µM.
